Residue numbers refer to the chain shown, from its start. Names and notes keep the numbering of the source. Where two headings read alike, the source gives them in different places. Values belong to the molecule of their own block, whether it stands above or below them.
How the values were obtained:
[1] = biological target: T1, human FLT3 (FMS-like tyrosine kinase 3) (human, UniProt P36888 27-993); assay: cell-based or functional assay
T1 sequence (looked up): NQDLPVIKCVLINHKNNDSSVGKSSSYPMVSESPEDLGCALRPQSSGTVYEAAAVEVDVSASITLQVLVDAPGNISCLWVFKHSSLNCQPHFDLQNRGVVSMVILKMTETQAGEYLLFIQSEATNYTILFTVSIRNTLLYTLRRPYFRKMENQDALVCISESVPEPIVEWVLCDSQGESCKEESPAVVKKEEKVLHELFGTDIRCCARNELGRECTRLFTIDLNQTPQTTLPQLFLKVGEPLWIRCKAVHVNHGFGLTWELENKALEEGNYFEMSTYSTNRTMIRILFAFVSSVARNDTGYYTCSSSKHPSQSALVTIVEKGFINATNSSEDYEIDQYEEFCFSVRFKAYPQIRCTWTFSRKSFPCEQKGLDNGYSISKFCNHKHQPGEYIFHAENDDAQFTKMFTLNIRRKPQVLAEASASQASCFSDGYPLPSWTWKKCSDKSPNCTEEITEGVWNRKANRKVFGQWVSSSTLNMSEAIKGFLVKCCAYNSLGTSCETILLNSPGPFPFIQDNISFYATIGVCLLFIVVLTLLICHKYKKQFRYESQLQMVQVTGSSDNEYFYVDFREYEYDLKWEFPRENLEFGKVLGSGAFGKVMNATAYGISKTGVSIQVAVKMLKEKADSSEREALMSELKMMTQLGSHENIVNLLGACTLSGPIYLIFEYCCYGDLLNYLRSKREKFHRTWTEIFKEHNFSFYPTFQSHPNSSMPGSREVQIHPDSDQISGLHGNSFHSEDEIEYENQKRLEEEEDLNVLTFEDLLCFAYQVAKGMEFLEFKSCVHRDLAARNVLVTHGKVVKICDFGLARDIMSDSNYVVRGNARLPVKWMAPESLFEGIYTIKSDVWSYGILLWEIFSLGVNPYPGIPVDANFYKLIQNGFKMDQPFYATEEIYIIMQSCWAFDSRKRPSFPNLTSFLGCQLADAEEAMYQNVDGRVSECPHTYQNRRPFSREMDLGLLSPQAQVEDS

[2] = biological target: T1, human FLT3 (FMS-like tyrosine kinase 3); assay: cell-based or functional assay; remark: listed apart in the source
[3] = biological target: T1, human FLT3 (FMS-like tyrosine kinase 3); assay: cell-based or functional assay; remark: listed apart in the source
mouse FLT3 = biological target: T2, mouse FLT3 (mouse, UniProt Q00342 28-544, limits assumed); assay: not described
T2 construct: Named only in one sentence; no assay is described
T2 sequence (looked up): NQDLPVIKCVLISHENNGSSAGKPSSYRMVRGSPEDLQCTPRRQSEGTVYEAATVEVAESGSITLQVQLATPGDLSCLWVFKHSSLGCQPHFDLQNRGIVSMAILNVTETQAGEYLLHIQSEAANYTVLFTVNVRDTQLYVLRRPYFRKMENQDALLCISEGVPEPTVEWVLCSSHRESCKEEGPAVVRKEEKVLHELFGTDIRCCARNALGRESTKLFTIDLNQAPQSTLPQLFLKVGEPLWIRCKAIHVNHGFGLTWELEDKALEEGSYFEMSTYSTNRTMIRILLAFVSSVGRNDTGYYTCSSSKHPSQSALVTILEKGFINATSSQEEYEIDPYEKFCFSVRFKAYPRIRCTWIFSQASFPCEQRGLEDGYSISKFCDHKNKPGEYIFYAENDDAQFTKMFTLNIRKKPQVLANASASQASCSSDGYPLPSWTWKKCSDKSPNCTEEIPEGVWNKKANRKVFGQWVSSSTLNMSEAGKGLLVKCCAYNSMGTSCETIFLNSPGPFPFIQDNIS

cynomolgus FLT3 [4] = biological target: T3, cynomolgus FLT3 (cynomolgus, UniProt A0A2K5VQ48 27-993); assay: flow cytometry on stably expressing cyno FLT3-STAT5-Luciferase cells, AF488 anti-human IgG (H+L) detection
T3 construct: whole, on cells; also called cyno FLT3; monkey FLT3
T3 sequence: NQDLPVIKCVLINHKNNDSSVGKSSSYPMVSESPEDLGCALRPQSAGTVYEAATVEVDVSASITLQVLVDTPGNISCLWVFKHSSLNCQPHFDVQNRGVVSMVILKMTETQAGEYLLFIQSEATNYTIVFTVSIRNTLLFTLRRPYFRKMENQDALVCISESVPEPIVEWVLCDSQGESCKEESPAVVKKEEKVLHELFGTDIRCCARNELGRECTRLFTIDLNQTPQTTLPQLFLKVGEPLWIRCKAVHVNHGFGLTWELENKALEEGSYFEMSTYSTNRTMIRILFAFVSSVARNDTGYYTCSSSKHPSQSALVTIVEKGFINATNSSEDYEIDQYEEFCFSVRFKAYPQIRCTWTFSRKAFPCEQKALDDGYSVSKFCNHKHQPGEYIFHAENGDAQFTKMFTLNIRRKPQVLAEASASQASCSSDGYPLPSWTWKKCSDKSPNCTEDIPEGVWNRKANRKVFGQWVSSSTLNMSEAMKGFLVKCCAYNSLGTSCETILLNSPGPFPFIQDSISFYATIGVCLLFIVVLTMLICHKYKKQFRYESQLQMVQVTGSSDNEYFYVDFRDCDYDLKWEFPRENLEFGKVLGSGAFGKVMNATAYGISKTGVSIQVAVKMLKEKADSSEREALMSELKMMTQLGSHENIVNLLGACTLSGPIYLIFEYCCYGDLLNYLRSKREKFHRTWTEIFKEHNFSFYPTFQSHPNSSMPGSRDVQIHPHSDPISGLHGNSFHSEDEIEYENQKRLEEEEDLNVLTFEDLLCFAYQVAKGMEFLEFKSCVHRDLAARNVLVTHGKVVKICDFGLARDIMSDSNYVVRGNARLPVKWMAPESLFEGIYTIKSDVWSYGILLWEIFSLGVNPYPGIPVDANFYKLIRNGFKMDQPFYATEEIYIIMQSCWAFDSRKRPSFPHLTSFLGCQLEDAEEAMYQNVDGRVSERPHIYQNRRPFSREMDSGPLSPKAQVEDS
Protocol: (§1) Since NB1113 binds to human FLT3, but not mouse FLT3, the binding and functional activity of NB1113 was evaluated in both human and cynomolgus (cyno) FLT3-expressing systems. Stably expressing human and cyno FLT3-STAT5-Luciferase cells were used for both binding and functional assays. The binding of NB1113 to human or cyno FLT3 was assessed by flow cytometry using different concentrations of NB1113 in PBS+2% FBS, followed by detection using AF488 anti-human IgG (H+L) secondary antibody.

[5] = biological target: T1, human FLT3 (FMS-like tyrosine kinase 3); assay: flow cytometry on stably expressing human FLT3-STAT5-Luciferase cells, AF488 anti-human IgG (H+L) detection
Protocol: as §1

[6] = biological target: T1, human FLT3 (FMS-like tyrosine kinase 3); assay: cell-based or functional assay; remark: listed apart in the source
cynomolgus FLT3 [7] = biological target: T3, cynomolgus FLT3; assay: cell-based or functional assay

- EC50 in AML5 proliferation assay [2]: 0.118 nM
B1: NB1063 (antibody, V domains shown)
VH: EVQLLESGGGLVQPGGSLRLSCAPSGFTFSNYGMAWVRQAPGKGLEWVSSIHSGGGDTYYRDSVKGRFTISRDNSKNTLYLQMNSLRAEDTAVYYCARGRTPTGYYFDHWGQGTMVTVSS
VL: DIQMTQSPSSLSASVGDRVTITCRASEGIHNGLAWYQQKPGKVPKLLIYNANSLHSGVPSRFSGSGSGTDFTLTISSLQPEDVATYFCQQYYDYPLTFGQGTKLEIK

- EC50 in AML5 proliferation assay [2]: 0.201 nM
B2: NB1114 (antibody, V domains shown)
VH: B1 VH
VL: B1 VL with N31T

- EC50 in AML5 proliferation assay [2]: 0.27 nM
B4: NB1112 (antibody, V domains shown)
VH: B1 VH
VL: B1 VL with N31D

- binding result (mouse FLT3): no binding
- EC50 (cynomolgus FLT3 [4]): 0.9 nM
- EC50 [5]: 1.36 nM
- EC50 in human FLT3-STAT5-Luciferase reporter assay [6]: 1.1 nM
- EC50 of expansion of HLA-DR+CD1c+ cells from primary human bone marrow, 12 days [6]: 0.113 nM
- EC50 in cyno FLT3-STAT5-Luciferase reporter assay (cynomolgus FLT3 [7]): 1.6 nM
B8: NB1113 (antibody, V domains shown)
VH: B1 VH
VL: B1 VL with N31S
notes: Light chain variant (N31S in CDR-L1) of humanized NB1063 (VH1 x VL1); The constant regions are not restated for the humanized antibodies; the parent chimera NB1016 is human IgG4PAA (S228P, F234A, L235A) / human kappa; also called NB11113; N31S light chain variant of NB1063

- EC50 in AML5 proliferation assay [2]: 0.135 nM
B10: NB1115 (antibody, V domains shown)
VH: B1 VH
VL: B1 VL with N31L

Further lines, the molecule ahead of its results:

Molecule: FLT3 ligand (FLT3L) (from UniProt P49771 27-181)
- EC50 of expansion of HLA-DR+CD1c+ cells from primary human bone marrow, 12 days [1]: 0.023 nM

B3: Humanized VH5 x Humanized VL3 (antibody, V domains shown)
VH: B1 VH with L5V, G10V, L11V, R61A, T78S, A88T, V93L
VL: B1 VL with D1A, M4L, V43A, G57R, V83F
- Single dose STAT5-Luc assay, activity relative to NB1016 (chimeric), antibody at 1 nM [3]: 31%

B5: Humanized VH3 x Humanized VL2 (antibody, V domains shown)
VH: B1 VH with L5V, E46V, S75A
VL: B1 VL with D1A, V43A, V83F, F87Y
- Single dose STAT5-Luc assay, activity relative to NB1016 (chimeric), antibody at 1 nM [3]: 81%

B6: Humanized VH5 x Humanized VL2 (antibody, V domains shown)
VH: B1 VH with L5V, G10V, L11V, R61A, T78S, A88T, V93L
VL: B1 VL with D1A, V43A, V83F, F87Y
- Single dose STAT5-Luc assay, activity relative to NB1016 (chimeric), antibody at 1 nM [3]: 53%

B7: Humanized VH4 x Humanized VL2 (antibody, V domains shown)
VH: B1 VH with E1Q, L5V, L11V, G16R, P24A, S49A, V93T
VL: B1 VL with D1A, V43A, V83F, F87Y
- Single dose STAT5-Luc assay, activity relative to NB1016 (chimeric), antibody at 1 nM [3]: 90%

B9: Humanized VH5 x Humanized VL1 (antibody, V domains shown)
VH: B1 VH with L5V, G10V, L11V, R61A, T78S, A88T, V93L
VL: B1 VL
- Single dose STAT5-Luc assay, activity relative to NB1016 (chimeric), antibody at 1 nM [3]: 83%
